Article PMC11089037, “Structural basis of negative regulation of CRISPR-Cas7-11 by TPR-CHAT”

Legend:
DiCas7-11 = DiCas7-11 (Desulfonema ishimotonii, UniProt A0A401FT36 1-1601); assay: cryo-EM; EMSA: 40 mM Tris-HCl pH 7.5, 60 mM NaCl, 6 mM MgCl2, 30 min at 4 C; 15% native PAGE; cryo-EM samples: 20 mM HEPES-NaOH pH 8.0, 300 mM NaCl, 0.5 mM DTT; conditions: protein: recombinant; tags: N-terminal 8xHis-SUMO-TEV; single strand, V-shaped 5' repeat
DiCas7-11;DiTPR-CHAT NTD = DiCas7-11;DiTPR-CHAT NTD (Desulfonema ishimotonii;Desulfonema …, UniProt A0A401FT36;A0A401FT52 1-1601;1-65, |); assay: cryo-EM; with TPR-CHAT NTD; EMSA: 40 mM Tris-HCl pH 7.5, 60 mM NaCl, 6 mM MgCl2, 30 min at 4 C; 15% native PAGE; cryo-EM samples: 20 mM HEPES-NaOH pH 8.0, 300 mM NaCl, 0.5 mM DTT; conditions: protein: recombinant;recombinant; tags: N-terminal 8xHis-SUMO-TEV;C-terminal 2xStrep; copies: 1;1; single strand, V-shaped 5' repeat
DiCas7-11;DiTPR-CHAT = DiCas7-11;DiTPR-CHAT (Desulfonema ishimotonii;Desulfonema …, UniProt A0A401FT36;A0A401FT52 1-1601;1-751, |); assay: cryo-EM; with full-length TPR-CHAT; EMSA: 40 mM Tris-HCl pH 7.5, 60 mM NaCl, 6 mM MgCl2, 30 min at 4 C; 15% native PAGE; cryo-EM samples: 20 mM HEPES-NaOH pH 8.0, 300 mM NaCl, 0.5 mM DTT; conditions: protein: recombinant;recombinant; tags: N-terminal 8xHis-SUMO-TEV;C-terminal 2xStrep; copies: 1;1; single strand, V-shaped 5' repeat
DiCas7-11Inactive = DiCas7-11Inactive (Desulfonema ishimotonii, UniProt A0A401FT36 1-1601, D429A;D654A); assay: cryo-EM; pre-crRNA at 1:2 molar ratio; target RNA not seen in the map; EMSA: 40 mM Tris-HCl pH 7.5, 60 mM NaCl, 6 mM MgCl2, 30 min at 4 C; 15% native PAGE; cryo-EM samples: 20 mM HEPES-NaOH pH 8.0, 300 mM NaCl, 0.5 mM DTT; conditions: protein: recombinant; tags: N-terminal 8xHis-SUMO-TEV
Sequence of DiCas7-11Inactive (A0A401FT36 entry or part of it D429A;D654A): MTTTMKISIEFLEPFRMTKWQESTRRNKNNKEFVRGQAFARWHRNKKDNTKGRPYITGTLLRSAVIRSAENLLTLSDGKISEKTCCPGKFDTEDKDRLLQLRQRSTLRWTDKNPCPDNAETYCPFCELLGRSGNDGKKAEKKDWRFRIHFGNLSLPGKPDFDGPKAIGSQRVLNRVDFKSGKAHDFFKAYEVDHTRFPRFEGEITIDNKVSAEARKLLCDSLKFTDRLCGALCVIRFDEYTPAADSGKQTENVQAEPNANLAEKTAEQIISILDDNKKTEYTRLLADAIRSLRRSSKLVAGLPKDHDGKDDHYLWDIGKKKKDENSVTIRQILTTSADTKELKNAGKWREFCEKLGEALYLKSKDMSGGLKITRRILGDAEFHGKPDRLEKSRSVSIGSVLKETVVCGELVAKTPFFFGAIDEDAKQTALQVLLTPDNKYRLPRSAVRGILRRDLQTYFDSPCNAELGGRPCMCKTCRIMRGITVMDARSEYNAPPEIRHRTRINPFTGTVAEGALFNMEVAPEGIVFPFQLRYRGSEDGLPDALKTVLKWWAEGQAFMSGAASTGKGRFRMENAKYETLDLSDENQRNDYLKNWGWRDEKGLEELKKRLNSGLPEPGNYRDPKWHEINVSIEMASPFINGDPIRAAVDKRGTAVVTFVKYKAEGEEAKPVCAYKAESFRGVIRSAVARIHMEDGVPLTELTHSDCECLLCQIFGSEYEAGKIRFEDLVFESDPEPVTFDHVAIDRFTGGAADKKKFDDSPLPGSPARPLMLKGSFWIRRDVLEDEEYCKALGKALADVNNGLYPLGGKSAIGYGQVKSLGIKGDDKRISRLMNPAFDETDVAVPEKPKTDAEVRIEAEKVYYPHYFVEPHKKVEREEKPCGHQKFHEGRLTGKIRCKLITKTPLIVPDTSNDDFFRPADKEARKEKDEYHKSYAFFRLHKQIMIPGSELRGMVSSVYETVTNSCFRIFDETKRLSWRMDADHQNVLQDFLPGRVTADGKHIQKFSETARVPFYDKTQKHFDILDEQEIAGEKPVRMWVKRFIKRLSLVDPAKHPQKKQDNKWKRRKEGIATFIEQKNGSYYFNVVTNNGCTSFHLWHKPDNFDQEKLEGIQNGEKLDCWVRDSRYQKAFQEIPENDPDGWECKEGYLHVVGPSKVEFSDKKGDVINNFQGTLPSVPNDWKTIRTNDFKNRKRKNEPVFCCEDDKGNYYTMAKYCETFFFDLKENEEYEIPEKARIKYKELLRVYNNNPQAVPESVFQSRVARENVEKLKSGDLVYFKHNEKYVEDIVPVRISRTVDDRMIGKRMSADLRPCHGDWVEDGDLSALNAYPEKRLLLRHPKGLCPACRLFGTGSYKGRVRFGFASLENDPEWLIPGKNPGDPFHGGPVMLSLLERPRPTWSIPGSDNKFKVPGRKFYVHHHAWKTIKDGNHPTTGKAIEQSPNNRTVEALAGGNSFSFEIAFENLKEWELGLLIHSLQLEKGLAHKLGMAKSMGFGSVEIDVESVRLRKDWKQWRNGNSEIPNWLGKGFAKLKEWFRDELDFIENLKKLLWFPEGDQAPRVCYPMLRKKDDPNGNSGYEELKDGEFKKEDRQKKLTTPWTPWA

Sequence of DiCas7-11;DiTPR-CHAT (chain, as listed by the source |, chain 1 of 2): as the sequence (A0A401FT36 entry or part of it D429A;D654A) above, with A429D, A654D counted along it
Sequence of DiCas7-11;DiTPR-CHAT (chain, as listed by the source |, chain 2 of 2): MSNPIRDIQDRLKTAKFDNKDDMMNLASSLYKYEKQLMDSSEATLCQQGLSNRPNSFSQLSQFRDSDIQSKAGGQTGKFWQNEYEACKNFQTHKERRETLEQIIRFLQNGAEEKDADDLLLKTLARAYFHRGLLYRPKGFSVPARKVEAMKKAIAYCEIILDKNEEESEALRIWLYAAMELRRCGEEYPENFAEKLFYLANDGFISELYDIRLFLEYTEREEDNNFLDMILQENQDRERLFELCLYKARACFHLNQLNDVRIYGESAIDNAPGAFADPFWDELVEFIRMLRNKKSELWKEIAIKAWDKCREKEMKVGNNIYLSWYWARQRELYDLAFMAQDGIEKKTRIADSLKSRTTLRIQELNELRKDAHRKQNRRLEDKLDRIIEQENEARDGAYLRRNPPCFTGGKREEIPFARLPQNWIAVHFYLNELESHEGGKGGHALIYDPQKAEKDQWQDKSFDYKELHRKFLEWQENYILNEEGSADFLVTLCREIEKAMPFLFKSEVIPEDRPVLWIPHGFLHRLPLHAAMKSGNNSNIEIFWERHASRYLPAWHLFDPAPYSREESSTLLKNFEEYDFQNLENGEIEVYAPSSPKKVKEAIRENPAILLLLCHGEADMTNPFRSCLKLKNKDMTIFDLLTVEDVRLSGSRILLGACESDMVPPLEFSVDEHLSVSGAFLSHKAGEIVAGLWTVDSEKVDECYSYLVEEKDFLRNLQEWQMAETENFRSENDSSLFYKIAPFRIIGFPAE
Sequence of DiCas7-11;DiTPR-CHAT NTD (chain, as listed by the source |, chain 1 of 2): as the sequence (A0A401FT36 entry or part of it D429A;D654A) above, with A429D, A654D counted along it
Sequence of DiCas7-11;DiTPR-CHAT NTD (chain, as listed by the source |, chain 2 of 2): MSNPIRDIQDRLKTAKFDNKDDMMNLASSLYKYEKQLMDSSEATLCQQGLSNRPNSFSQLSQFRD
Sequence of DiCas7-11 (A0A401FT36 entry or part of it): as the sequence (A0A401FT36 entry or part of it D429A;D654A) above, with A429D, A654D counted along it

**Q.** Does UUGAUGUCACGGAACCUUUGUUGUCUUCGACAUGGGUA (structured_RNA) [mature crRNA in cryo-EM structures, U(-15)-A(23)] bind (DiCas7-11)?
**A.** Result: binds

**Q.** Does UUGAUGUCACGGAACCUUUGUUGUCUUCGACAUGGGUA (structured_RNA) [mature crRNA in cryo-EM structures, U(-15)-A(23)] bind (DiCas7-11;DiTPR-CHAT NTD)?
**A.** Result: binds

**Q.** Does UUGAUGUCACGGAACCUUUGUUGUCUUCGACAUGGGUA (structured_RNA) [mature crRNA in cryo-EM structures, U(-15)-A(23)] bind (DiCas7-11;DiTPR-CHAT)?
**A.** Result: binds

B1: single spacer pre-crRNA (ssRNA)
RNA: GGUUGGAAAGCCGGUUUUCUUUGAUGUCACGGAACCUUUGUUGUCUUCGACAUGGGUAAUCCUCAU
**Q.** Does B1 bind (DiCas7-11Inactive)?
**A.** Result: binds
